This note sets out measurements from paper PMC9771711 (Science (New York, N.Y.), 2021).

The test deals with CCHFV Gc^1579 (Crimean-Congo hemorrhagic fever virus, …). The test is described as follows: BLI. Background: In BLI a coated tip is dipped into the sample, and binding shifts an interference pattern.

B1: ADI-36121 (as used in BLI) (antibody, V domains shown)
VH: EVQLLESGGDLVQPGGSLRLSCAASGFTFSSYVMSWVRQAPGKGLEWVSVIYRGGSTKYADSVKGRFTISRDDSKNTLYLQMNSLRVEDTAVYYCVKDPKAWLEPEWWGQGTLVTVSS
VL: DIQMTQSPSSLSASVGDRVTITCRASQSISKYLSWFQQKPGKAPNLLIYAASYLQSGVPSRFSGSGSGTDFTLTISSLQPEDFATYYCQQSYSNPRTFGQGTKVEIK
With B1, the binding result is on record as “binds”.
